Experimental data reported in patent US11541133B2, “Treatment of cancer cells overexpressing somatostatin receptors using ocreotide derivatives chelated to radioisotopes” (RADIOMEDIX INC., priority 2017, dated 2023).

Columns and labels:
[1] = Biodistribution in non-tumor bearing CD-1 mice at 4 h post-injection (FIGS. 12-13); conditions: female, CD-1, mouse, in vivo, total radioactivity
Experimental: FIG. 12 is a bar graph 1200 showing the biodistribution (% ID/g)(y-axis) for various organs (x-axis). The biodistribution of ^203Pb-TCMCTATE and ^203Pb-DOTAMTATE is shown for non-tumor bearing mice done at 4 h post-injection. The biodistribution studies of ^203Pb-TCMCTATE and ^203Pb-DOTAMTATE are completed in non-tumor bearing mice (CD-1 mice, Female, 20 g wt. 4-5 weeks) at 4 h post-injection of the cancer targeting compositions.
In comparison, FIG. 13 is a graph 1300 (similar to the graph of FIG. 12), except that the biodistribution study is of ^203Pb-acetate (a lead radioisotope without a chelator or targeting moiety) in non-tumor bearing mice done at 4 h post-injection. A higher accumulation of isotope is observed in blood, kidney, liver and lung compared to the chelated radioisotopes of FIG. 12. The biodistribution studies of the ^203Pb-acetate indicate retention of the isotope in bone marrow, blood and liver after 4 h post-injection.

[2] = Radiochemical stability by radio-HPLC after labeling, incubation in PBS buffer; conditions: room temperature
[3] = ^203Pb-DOTAMTATE biodistribution in athymic nude mice (FIG. 16); format: in vivo; conditions: female athymic nude mice, 10 μCi iv, 4, 24 and 48 hours
Experimental: FIG. 16 is a bar graph 1600 showing the biodistribution results (% ID/g) of ^203Pb-DOTAMTATE in various organs (y-axis). The biodistribution data are acquired at 4 h, 24 h, and 48 h post-injection. […] There is also accumulation of the composition observed in kidneys and bladder due elimination of the composition through renal clearance. As may be seen from these figures, the composition is washed out from all measured organs over time in non-tumor bearing mice.
Female athymic nude mice (˜20 g) are injected with a single dose of ^203Pb-DOTAMTATE. Specifically, 10 μCi of ^203Pb-DOTAMTATE is diluted in PBS and 100 μl is administered to the mice via intravenous injection. The animals are sacrificed at predetermined time points of 4 hr, 24 hours and 48 hours post drug injection. Tissues are collected from each animal and evaluated for amount of radioactive material in each organ by auto gamma counter. Specifically, organs are harvested, weighed and transferred to polypropylene tubes. The tubes are placed in a calibrated Wizard2 γ-counter (PerkinElmer, Shelton, Conn.) and counted for three minutes (204-274 keV). A standard consisting of one-twentieth of the injection volume is counted with each time point. The background is automatically subtracted from the counts. The standard is also used for decay correction. % ID/g is calculated for each organ collected.

[4] = Side by side biodistribution of ^203Pb- and ^212Pb-DOTAMTATE in CD-1 mice (FIG. 32); format: in vivo; conditions: female CD-1 mice, 10 μCi iv, 4 hr and 24 hours
Experimental: Female CD-1 mice (˜20 g) are injected with a single dose of ^203Pb-DOTAMTATE or ^212Pb-DOTAMTATE. Specifically, 10 μCi of ^203Pb-DOTAMTATE or ^212Pb-DOTAMTATE is diluted in saline and 100 μl is administered to the mice via intravenous injection. The animals are sacrificed at predetermined time points of 4 hr and 24 hours post drug injection. Tissues are collected from each animal and evaluated for amount of radioactive material in each organ by auto gamma counter. Specifically, organs are harvested, weighed and transferred to 12×55 mm polypropylene tubes. The tubes are placed in a calibrated Wizard2 γ-counter (PerkinElmer, Shelton, Conn.) and counted for three minutes (204-274 keV). A standard consisting of one-twentieth of the injection volume is counted with each time point. The background is automatically subtracted from the counts. The standard is also used for decay correction. % ID/g is calculated for each organ collected, wherein “% ID” means percent injection dosage.

[5] = Dosimetry and bio-distribution of ^203Pb-DOTAMTATE in patients with somatostatin expressing neuroendocrine tumors (SPECT-CT); format: in vivo, human; conditions: human, in vivo
Experimental: Total of 6 patients are enrolled in the first-in-human open-label, single-dose, dosimetry and bio-distribution of ^203Pb-DOTAMTATE.
All patients (1 female and 5 male) receive an average dose of 4.94 (4.66-5.26) mCi of ^203Pb-DOTAM-TATE and undergo 1 hour, 4 hour, 24 hour and 48 hour post injection SPECT-CT scans. Ethnicity of all 6 patients is Caucasian.
Pharmacokinetic data from ^203Pb-DOTAMTATE imaging are used to calculate the absorbed dose from ^203Pb-DOTAMTATE imaging. The data is then extrapolated to calculate the expected tissue absorbed doses following the administration of ^212Pb-DOTAMTATE for future Targeted Alpha particle Therapy (TAT).

[6] = in vivo; design: species or system mice
Experimental: ^212Pb-DOTATOC is prepared based on activity needed at time of injection. 4.1 ng of peptide per 10 μCi of ^212Pb into a tube is added. The mixture is incubated for 10 minutes at 50° C. with shaking. ITLC (Instant thin layer chromatography) is used to verify that chelation is >95%. 100 μl of ^212Pb-DOTATOC is intravenously injected into the tail of each mouse. An auto gamma counter is used to determine the counts of each organ and control tube.

[7] = female, CD-1, mouse, iv, 10 uCi, total radioactivity

## C[C@@H](O)[C@H](NC(=O)[C@@H]1CSSC[C@H](NC(=O)[C@@H](Cc2ccccc2)NC(=S)Nc2ccc(C[C@H]3CN(CC(N)=O)CCN(CC(N)=O)CCN(CC(N)=O)CCN3CC(N)=O)cc2)C(=O)N[C@@H](Cc2ccc(O)cc2)C(=O)N[C@H](Cc2c[nH]c3ccccc23)C(=O)N[C@@H](CCCCN)C(=O)N[C@@H]([C@@H](C)O)C(=O)N1)C(=O)O [^203Pb-TCMCTATE, ((4R,7S,10S,13R,16S,19R)-13-((1H-indol-3-yl)methyl)-10-(4-aminobutyl)-16-(4-hydroxybenzyl)-7-((R)-1-hydroxyethyl)-6,9,12,15,18-pentaoxo-19-((R)-3-phenyl-2-(3-(4-(((S)-1,4,7,10-tetrakis(2-amino-2-oxoethyl)-1,4,7,10-tetraazacyclododecan-2-yl)methyl)phenyl)thioureido)propanamido)-1,2-dithia-5,8,11,14,17-pentaazacycloicosane-4-carbonyl)-L-threonine chelated to M, metal not drawn]
[1]; non-tumor bearing CD-1 mice, 4 h post-injection, read-out: kidney retention
  tissue uptake at 4 h: 23.5 ± 1.54 %ID/g
[1]; non-tumor bearing CD-1 mice, 4 h post-injection, read-out: retention in other organs (than kidneys)
  tissue uptake at 4 h: < 2 %ID/g
[2]; up to 18 h post-labeling
  radiochemical stability (radio-HPLC): ≥ 96%

## C[C@@H](O)[C@H](NC(=O)[C@@H]1CSSC[C@H](NC(=O)[C@@H](Cc2ccccc2)NC(=O)CN2CCN(CC(N)=O)CCN(CC(N)=O)CCN(CC(N)=O)CC2)C(=O)N[C@@H](Cc2ccc(O)cc2)C(=O)N[C@H](Cc2c[nH]c3ccccc23)C(=O)N[C@@H](CCCCN)C(=O)N[C@@H]([C@@H](C)O)C(=O)N1)C(=O)O [^203Pb-DOTAMTATE, ((4R,7S,10S,13R,16S,19R)-13-((1H-indol-3-yl)methyl)-10-(4-aminobutyl)-16-(4-hydroxybenzyl)-7-((R)-1-hydroxyethyl)-6,9,12,15,18-pentaoxo-19-((R)-3-phenyl-2-(2-(4,7,10-tris(2-amino-2-oxoethyl)-1,4,7,10-tetraazacyclododecan-1-yl)acetamido)propanamido)-1,2-dithia-5,8,11,14,17-pentaazacycloicosane-4-carbonyl)-L-threonine chelated to M, metal not drawn]
[1]; kidney retention
  tissue uptake at 4 h: 9.79 ± 2.9 %ID/g
[1]; retention in other organs (than kidneys)
  tissue uptake at 4 h: < 2 %ID/g
[3]
  organ uptake: high initial uptake of the drug in the pancreas and kidneys that continues to decrease over time
[4]
  organ uptake compared with ^212Pb-DOTAMTATE in all critical organs: not significantly different
[5]
  absorbed dose, kidneys, average, for ^212Pb: 19 mGy/MBq
  absorbed dose, liver, average, for ^212Pb: 17 mGy/MBq
  dose to bone marrow: 1.6 Gy
  dose to heart wall: 3.7 Gy
  dose to lungs: 2.5 Gy
  dose to osteogenic cells: 0.5 Gy
  dose to spleen: 31 Gy
[2]; up to at least 24 h post-labeling
  radiochemical stability (radiochemical yield, no free ^203Pb peak in radio-HPLC): ≥ 98%

## C[C@@H](O)[C@@H]1NC(=O)[C@H](CCCCN)NC(=O)[C@@H](Cc2c[nH]c3ccccc23)NC(=O)[C@H](Cc2ccc(O)cc2)NC(=O)[C@@H](NC(=O)[C@@H](Cc2ccccc2)NC(=O)CN2CCN(CC(=O)O)CCN(CC(=O)O)CCN(CC(=O)O)CC2)CSSC[C@@H](C(=O)N[C@H](CO)[C@@H](C)O)NC1=O [^212Pb-DOTATOC, metal not drawn]
[6]; [7]
  tissue uptake at 0.5 h: 19 %ID/g
  tissue uptake at 4 h: 22 %ID/g
[6]; mouse
  drug in all other organs: nearly undetectable
